According to paper PMC4041440, “Structural and biophysical characterization of Staphylococcus aureus SaMazF shows conservation of functional dynamics” (Nucleic Acids Research, 2014):

Target: the molecule itself
Experiment: SEC; analytical gel filtration, Superdex HR75 10/30, 20 mM Tris-HCl pH 8.0, 250 mM NaCl, SaMazF at 3.3 mg/ml; apparent molecular weight about 31 500 Da

B1: Staphylococcus aureus MazF toxin (SaMazF), N-terminally His-tagged (enzyme)
chain: IRRGDVYLADLSPVQGSEQGGVRPVVIIQNDTGNKYSPTVIVAAITGRINKAKIPTHVEIEKKKYKLDKDSVILLEQIRTLDKKRLKEKLTYLSDDKMKEVDNALMISLGLNAVAHQKN
notes: SaMazF, the MazF toxin (ribonuclease) of the Staphylococcus aureus mazEF module; wild type; 13C15N-labelled for the NMR experiments; The models number the tag's last residues Gln-1, Asp0, Pro1, so the tag's Pro may stand at position 1 of SaMazF in place of Met1; The measured mass is 14 794 Da, for the chain with the tag and without the N-terminal methionine; also called SaMazF2 (the dimer); …
stoichiometry N: 2
